Results: patent US20030198598A1, “Polypeptide derivatives” (priority 1989, published 2003)
One block for each compound: values may come before it. Where a SMILES comes first, the peptide text is derived from it. [ ]: non-standard residue; d: D form. The star is where a group is joined. DTPA = O=C(O)CN(CCN(CC(=O)O)CC(=O)O)CCN(CC(=O)O)CC(=O)*; dPhe(4-Cl) = N[C@H](Cc1ccc(Cl)cc1)C(=O)O

Columns and labels:
[1] = target: T1, EGF receptor (Homo sapiens, UniProt P00533); assay: Similar binding assay with the 111In labelled compound as test substance, non-specific binding with 10^-7 M EGF; conditions: compound of Example 3 labelled with 0.2 mCi 111InCl3; controls with 10^-7 M EGF
T1 construct: Membranes are isolated by differential centrifugation; from tissue; host or cells: EGF receptor positive human tumor (membranes)
Method: An EGF receptor positive human tumor is removed and immediately stored at −70° C. During the subsequent isolation procedure this material is kept at 0 to 4° C. The tumor tissue is dissected into small cubes prior to homogenisation in 5 parts of Buffer A (20 mM HEPES, 0.1 mM EDTA and 250 mM sucrose, pH 7.4). Membranes are isolated by differential centrifugation. The material is then diluted in the incubation buffer containing 30 mM HEPES, pH 7.4, 1 mg/ml BSA and 1 mM benzamidine. […] After mixing the icecold test solution on a vortex the tubes (polypropylene) are transfered to a waterbath and incubated for 30 min at 37° C. The reaction is stopped by addition of icecold Hank's or Tris buffer (4 ml). The Tris buffer contains 10 mM Tris in 0.9% sodium chloride solution and is adjusted to pH 7.4. Routinely, filtration buffers contain 1% BSA (Fraction V) to suppress non-specific binding to the glass fiber filters (type A/E) that have been soaked in the filtration buffer a few minutes prior to use. The tubes are rinsed with 4 ml of the filtration buffer and the rinsing fluid is put over the respective filters. A third wash of the filters is followed by drying and the measurement of the filter-bound radioactivity in a γ-counter. The washing of the filters takes approximately 10 sec. […]

[2] = tested on: EGF receptor positive tumour (MDA 231, MDA 468 or A 431 tumors); design: species or system nude mice; conditions: mouse, in vivo, iv
Method: Biodistribution of radioactivity may be determined either with standard imaging techniques in nude mice weighing 20+5 g and bearing an EGF receptor positive tumour (MDA 231, MDA 468 or A 431 tumors) or through serial sacrifice of a number of such animals and determination of the organ radioactivity. Compound of Example 4 is administered i.v. to the animals at a dosage corresponding to 90-10 μCi and the radioactivity is assessed 5 min, 10 min, 15 min, 30 min, 60 min, 20 hrs and 48 hrs.

[3] = target: T1, EGF receptor; assay: Inhibition of specifically bound [125I]-EGF on membranes of an EGF receptor positive human tumor; format: binding; conditions: 30 min at 37° C
Method: An EGF receptor positive human tumor is removed and immediately stored at −70° C. During the subsequent isolation procedure this material is kept at 0 to 4° C. The tumor tissue is dissected into small cubes prior to homogenisation in 5 parts of Buffer A (20 mM HEPES, 0.1 mM EDTA and 250 mM sucrose, pH 7.4). Membranes are isolated by differential centrifugation. The material is then diluted in the incubation buffer containing 30 mM HEPES, pH 7.4, 1 mg/ml BSA and 1 mM benzamidine. The test mixture (200 μl final volume) contains 100 000 cpm [^125I]-EGF, the tissue (5 to 25 μg protein/assay) and compound of Example 3 at a concentration of 10^−9 M. After mixing the icecold test solution on a vortex the tubes (polypropylene) are transfered to a waterbath and incubated for 30 min at 37° C. The reaction is stopped by addition of icecold Hank's or Tris buffer (4 ml). The Tris buffer contains 10 mM Tris in 0.9% sodium chloride solution and is adjusted to pH 7.4. Routinely, filtration buffers contain 1% BSA (Fraction V) to suppress non-specific binding to the glass fiber filters (type A/E) that have been soaked in the filtration buffer a few minutes prior to use. The tubes are rinsed with 4 ml of the filtration buffer and the rinsing fluid is put over the respective filters. A third wash of the filters is followed by drying and the measurement of the filter-bound radioactivity in a γ-counter. […]

[4] = target: T2, LHRH-receptors (Rattus norvegicus, UniProt P30969); assay: Binding assay on LHRH receptor positive anterior pituitary membranes; design: species or system male Sprague-Dawley rats; conditions: labelled with 0.4 mCi 111InCl3, 10^-6 M (DAla6)LHRH for non-specific binding
T2 construct: LHRH receptor positive anterior pituitary membranes from male Sprague-Dawley rats; from tissue; host or cells: anterior pituitary membranes of male Sprague-Dawley rats
T2 sequence (P30969 1-327): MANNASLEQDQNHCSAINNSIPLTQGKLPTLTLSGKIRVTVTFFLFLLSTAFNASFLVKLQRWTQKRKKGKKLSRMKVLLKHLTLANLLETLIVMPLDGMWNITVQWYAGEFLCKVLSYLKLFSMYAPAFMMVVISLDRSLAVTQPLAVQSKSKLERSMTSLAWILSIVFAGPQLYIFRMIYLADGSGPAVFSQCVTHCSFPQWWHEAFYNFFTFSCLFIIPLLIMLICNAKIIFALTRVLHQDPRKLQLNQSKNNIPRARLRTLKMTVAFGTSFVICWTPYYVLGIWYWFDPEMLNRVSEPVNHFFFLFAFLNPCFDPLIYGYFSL

IC50 [1]: 3 nM
Compound: ^111In Labeled DTPA-β-Ala-mEGF [Example 4]
Localisation of radioactivity 5 minutes after injection [2]: radioactivity is detected in the liver, kidneys, urinary bladder and in the tumor site
Localisation of radioactivity 60 min after injection [2]: Radioactivity is increasing and is localized on the tumor site

IC50 [3]: 1.3 nM
Compound: DTPA-β-Ala-mEGF [Example 3]

IC50 [4]: 1.1 nM
Compound: CC(=O)N[C@H](Cc1ccc(Cl)cc1)C(=O)N[C@H](Cc1ccc(Cl)cc1)C(=O)N[C@H](Cc1c[nH]c2ccccc12)C(=O)N[C@@H](CO)C(=O)N[C@@H](Cc1ccc(O)cc1)C(=O)N[C@H](CCCCNC(=O)CN(CCN(CCN(CC(=O)O)CC(=O)O)CC(=O)O)CC(=O)O)C(=O)N[C@@H](CC(C)C)C(=O)N[C@@H](CCCNC(=N)N)C(=O)N1CCC[C@H]1C(=O)N[C@H](C)C(N)=O [^111In labelled compound of Example 8, metal not drawn] (Ac-[dPhe(4-Cl)][dPhe(4-Cl)][dW]SY[dK](DTPA)LRP[dA]-NH2)
